Patent US20250361282A1 (Bayer, published 2025)
Where “and” joins values, the source holds several entries; their conditions need not be identical. Identical values can stand only once.

T1: human NPRA (human, UniProt P16066 33-1061)
T1 sequence (looked up): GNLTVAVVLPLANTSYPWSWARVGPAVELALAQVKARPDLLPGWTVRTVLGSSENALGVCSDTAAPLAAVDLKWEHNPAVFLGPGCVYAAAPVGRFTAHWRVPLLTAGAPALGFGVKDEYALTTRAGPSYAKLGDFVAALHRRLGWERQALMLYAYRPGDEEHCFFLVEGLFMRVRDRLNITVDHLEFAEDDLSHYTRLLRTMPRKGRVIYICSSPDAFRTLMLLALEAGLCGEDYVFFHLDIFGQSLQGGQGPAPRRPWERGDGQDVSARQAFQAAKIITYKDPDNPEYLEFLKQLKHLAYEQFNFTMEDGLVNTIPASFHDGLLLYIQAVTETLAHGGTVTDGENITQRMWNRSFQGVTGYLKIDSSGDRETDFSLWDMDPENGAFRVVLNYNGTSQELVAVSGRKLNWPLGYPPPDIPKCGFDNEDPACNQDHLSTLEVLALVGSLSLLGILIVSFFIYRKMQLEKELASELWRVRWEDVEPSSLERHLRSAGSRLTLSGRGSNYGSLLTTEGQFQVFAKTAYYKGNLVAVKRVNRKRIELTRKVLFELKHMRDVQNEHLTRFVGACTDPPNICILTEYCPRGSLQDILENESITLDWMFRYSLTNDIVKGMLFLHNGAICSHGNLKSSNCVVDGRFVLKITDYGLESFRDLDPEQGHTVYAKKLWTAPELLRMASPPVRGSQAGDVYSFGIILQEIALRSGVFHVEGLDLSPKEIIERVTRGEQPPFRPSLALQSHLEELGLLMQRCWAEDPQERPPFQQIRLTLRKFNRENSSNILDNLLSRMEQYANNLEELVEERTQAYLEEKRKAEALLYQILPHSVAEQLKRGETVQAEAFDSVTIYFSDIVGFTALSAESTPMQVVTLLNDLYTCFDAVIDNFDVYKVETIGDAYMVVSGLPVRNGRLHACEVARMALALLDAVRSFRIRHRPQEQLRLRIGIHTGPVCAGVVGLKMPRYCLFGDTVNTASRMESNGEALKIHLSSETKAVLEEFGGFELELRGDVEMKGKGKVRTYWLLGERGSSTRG

B1: TPP-10294 (antibody, human IgG1, lambda)
heavy: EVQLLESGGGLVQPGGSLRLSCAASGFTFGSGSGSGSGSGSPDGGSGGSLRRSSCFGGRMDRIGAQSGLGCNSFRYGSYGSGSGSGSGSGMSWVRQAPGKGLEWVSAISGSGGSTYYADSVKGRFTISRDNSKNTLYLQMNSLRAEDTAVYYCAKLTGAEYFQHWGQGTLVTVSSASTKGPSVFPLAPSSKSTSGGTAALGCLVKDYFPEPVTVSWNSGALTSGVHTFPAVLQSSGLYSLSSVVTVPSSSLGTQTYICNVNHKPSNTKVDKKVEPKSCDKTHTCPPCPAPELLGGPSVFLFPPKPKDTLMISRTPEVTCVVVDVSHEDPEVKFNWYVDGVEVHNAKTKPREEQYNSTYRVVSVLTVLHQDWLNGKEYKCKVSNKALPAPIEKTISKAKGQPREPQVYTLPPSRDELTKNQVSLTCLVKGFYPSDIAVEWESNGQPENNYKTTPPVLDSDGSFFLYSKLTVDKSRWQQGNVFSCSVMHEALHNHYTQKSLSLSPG
light: QSVLTQPPSVSGAPGQRVTISCTGSSSNIGAGYDVHWYQQLPGTAPKLLIYGNSNRPSGVPDRFSGSKSGTSASLAITGLQAEDEADYYCQSYDSSLSGVVFGGGTKLTVLGQPKAAPSVTLFPPSSEELQANKATLVCLISDFYPGAVTVAWKADSSPVKAGVETTTPSKQSNNKYAASSYLSLTPEQWKSHRSYSCQVTHEGSTVEKTVAPTECS
B2: TPP-13054 (antibody, human IgG1, lambda)
heavy: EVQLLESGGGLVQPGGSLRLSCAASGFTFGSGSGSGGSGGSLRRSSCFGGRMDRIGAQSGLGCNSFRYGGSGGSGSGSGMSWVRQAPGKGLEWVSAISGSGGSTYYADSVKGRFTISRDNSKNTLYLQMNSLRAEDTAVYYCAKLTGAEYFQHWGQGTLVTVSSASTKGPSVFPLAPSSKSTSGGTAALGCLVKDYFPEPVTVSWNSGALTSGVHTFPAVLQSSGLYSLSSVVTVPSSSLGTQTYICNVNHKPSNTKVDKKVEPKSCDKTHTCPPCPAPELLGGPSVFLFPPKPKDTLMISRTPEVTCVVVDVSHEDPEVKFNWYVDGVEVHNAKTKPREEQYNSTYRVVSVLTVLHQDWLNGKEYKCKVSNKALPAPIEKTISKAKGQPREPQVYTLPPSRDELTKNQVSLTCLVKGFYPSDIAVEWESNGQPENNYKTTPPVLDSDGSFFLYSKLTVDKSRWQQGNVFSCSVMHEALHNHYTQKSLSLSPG
light: B1 light
B3: TPP-10274 (antibody)
heavy: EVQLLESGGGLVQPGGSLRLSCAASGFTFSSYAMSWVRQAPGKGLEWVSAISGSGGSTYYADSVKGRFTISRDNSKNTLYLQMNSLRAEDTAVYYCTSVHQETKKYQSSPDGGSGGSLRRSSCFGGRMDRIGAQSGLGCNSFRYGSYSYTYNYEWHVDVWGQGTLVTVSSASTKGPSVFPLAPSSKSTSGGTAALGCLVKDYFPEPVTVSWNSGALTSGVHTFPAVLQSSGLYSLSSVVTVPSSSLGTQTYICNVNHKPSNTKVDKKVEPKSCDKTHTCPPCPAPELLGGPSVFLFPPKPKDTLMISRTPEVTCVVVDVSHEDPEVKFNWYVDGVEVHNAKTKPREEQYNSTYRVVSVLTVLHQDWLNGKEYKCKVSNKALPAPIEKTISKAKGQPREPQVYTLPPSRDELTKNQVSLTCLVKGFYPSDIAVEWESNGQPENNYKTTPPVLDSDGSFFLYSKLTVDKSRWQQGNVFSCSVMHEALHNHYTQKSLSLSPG
light: B1 light
B4: TPP-13061 (antibody, human IgG1, lambda)
heavy: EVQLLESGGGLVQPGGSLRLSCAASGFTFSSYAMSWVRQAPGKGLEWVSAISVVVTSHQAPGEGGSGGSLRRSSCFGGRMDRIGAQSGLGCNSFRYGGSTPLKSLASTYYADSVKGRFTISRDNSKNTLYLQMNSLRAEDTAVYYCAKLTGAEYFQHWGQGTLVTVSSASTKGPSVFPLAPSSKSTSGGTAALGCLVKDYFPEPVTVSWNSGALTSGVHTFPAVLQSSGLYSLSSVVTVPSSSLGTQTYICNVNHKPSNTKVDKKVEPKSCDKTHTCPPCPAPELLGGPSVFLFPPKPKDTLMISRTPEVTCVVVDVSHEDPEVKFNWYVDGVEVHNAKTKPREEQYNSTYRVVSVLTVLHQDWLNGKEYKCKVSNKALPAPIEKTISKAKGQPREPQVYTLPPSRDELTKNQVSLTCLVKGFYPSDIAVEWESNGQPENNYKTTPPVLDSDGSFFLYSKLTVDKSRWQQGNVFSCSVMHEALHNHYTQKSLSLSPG
light: B1 light
B5: TPP-10282 (antibody, human IgG1, lambda)
heavy: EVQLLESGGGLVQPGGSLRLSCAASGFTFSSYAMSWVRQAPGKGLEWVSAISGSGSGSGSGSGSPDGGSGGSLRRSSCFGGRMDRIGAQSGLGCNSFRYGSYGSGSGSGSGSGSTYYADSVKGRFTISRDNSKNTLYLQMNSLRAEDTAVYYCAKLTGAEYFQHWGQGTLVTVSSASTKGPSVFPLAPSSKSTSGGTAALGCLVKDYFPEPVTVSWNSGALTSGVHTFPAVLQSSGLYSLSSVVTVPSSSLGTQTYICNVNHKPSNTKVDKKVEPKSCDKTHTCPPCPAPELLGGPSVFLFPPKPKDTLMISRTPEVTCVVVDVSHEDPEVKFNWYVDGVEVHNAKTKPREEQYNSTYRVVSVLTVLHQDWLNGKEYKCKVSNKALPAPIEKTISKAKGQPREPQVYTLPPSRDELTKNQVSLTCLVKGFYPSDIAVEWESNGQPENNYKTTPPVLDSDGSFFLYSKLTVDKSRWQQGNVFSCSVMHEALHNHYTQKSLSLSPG
light: B1 light
B6: TPP-10847 (antibody, human IgG1, lambda)
heavy: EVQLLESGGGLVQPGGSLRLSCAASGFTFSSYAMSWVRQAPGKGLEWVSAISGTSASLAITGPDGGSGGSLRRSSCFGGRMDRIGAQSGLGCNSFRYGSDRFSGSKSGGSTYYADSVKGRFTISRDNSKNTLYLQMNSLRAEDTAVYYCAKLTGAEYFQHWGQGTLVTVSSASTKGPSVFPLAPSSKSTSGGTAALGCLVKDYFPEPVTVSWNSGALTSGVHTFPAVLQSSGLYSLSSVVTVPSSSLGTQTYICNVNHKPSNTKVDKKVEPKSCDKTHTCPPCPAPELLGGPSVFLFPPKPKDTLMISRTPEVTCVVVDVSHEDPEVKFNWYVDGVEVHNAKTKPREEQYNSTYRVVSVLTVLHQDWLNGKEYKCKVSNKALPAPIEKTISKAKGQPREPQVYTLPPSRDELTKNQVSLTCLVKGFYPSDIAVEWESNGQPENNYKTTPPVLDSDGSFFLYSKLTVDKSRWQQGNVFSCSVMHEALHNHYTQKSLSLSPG
light: B1 light
B7: TPP-10283 (antibody, human IgG1, lambda)
heavy: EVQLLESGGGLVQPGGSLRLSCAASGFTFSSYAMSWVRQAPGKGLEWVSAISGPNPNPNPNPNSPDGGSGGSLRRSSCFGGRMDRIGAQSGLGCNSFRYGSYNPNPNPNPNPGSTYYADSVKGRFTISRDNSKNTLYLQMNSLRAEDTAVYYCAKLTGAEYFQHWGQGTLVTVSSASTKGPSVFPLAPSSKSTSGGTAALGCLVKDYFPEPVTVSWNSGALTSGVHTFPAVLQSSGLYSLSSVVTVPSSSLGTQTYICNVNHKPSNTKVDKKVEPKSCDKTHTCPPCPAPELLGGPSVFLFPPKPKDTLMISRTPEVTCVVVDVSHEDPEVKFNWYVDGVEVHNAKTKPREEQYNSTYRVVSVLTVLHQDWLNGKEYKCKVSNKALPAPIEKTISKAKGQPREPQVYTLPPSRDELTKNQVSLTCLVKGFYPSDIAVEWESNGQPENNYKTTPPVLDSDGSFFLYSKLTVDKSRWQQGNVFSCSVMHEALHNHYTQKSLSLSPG
light: B1 light
B8: TPP-10845 (antibody, human IgG1, lambda)
heavy: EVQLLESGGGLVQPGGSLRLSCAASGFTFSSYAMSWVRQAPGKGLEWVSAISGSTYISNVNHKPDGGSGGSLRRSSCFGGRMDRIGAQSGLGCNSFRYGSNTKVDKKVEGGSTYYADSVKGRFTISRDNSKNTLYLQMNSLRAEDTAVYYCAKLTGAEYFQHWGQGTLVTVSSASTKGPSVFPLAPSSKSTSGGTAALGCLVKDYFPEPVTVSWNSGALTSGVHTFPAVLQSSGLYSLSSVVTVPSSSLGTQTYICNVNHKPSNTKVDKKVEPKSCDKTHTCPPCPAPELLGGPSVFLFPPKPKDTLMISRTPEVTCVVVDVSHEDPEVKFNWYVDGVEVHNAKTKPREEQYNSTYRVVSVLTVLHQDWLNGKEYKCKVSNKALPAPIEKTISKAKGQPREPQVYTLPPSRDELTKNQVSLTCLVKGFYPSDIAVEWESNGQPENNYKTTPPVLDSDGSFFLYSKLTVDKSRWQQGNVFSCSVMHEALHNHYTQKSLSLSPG
light: B1 light
B9: TPP-10765 (antibody, human IgG1, lambda)
heavy: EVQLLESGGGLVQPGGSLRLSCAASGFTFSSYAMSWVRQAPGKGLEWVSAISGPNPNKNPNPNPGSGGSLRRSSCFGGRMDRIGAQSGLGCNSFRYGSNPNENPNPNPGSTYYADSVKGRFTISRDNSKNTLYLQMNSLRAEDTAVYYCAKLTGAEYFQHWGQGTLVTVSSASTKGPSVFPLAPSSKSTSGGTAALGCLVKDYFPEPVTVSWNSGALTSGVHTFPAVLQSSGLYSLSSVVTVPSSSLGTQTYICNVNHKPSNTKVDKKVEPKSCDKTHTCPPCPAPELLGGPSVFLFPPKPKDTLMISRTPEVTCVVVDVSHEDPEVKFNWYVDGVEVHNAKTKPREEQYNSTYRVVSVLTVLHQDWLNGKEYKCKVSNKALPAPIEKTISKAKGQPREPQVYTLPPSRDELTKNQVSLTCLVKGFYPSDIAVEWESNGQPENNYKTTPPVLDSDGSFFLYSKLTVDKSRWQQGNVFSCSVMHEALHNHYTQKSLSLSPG
light: B1 light

Target: T1, human NPRA
Experiment: cell-based or functional assay

Binder	activity rcs (cGMP, hNPRA-CHO k1)	average rel logEC50 (vs TPP-5661)	rel. logEC50* pcs (vs TPP-5661, hNPRA-HEK293)	rel. logEC50 pcs 4 (vs TPP-5661, hNPRA-CHO k1)	rel. logEC50 pcs 7 (vs TPP-5661, hNPRA-CHO k1)	rel. logEC50 pcs 2 (vs TPP-5661, hNPRA-CHO k1)	rel. logEC50 pcs 3 (vs TPP-5661, hNPRA-CHO k1)	rel. activity rcs (delta logEC50 vs TPP-5661, hNPRA-CHO k1)	rel. logEC50 pcs 1 (vs TPP-5661, hNPRA-CHO k1)	rel. logEC50 pcs 5 (vs TPP-5661, hNPRA-CHO k1)	rel. logEC50 pcs 6 (vs TPP-5661, hNPRA-CHO k1)
B1	41%	-0.3	-0.5 and -0.6 and -0.4	-0.2	0	–	–	–	–	–	–
B2	–	-0.8	-0.7 and -0.8	–	–	–	–	–	–	–	–
B3	71%	-0.1	–	–	0	-0.3	-0.2	–	–	–	–
B4	–	-0.7	-0.6 and -0.8	–	–	–	–	–	–	–	–
B5	30%	0.1	–	0.1	–	-0.2	–	0.3	0.3	0.2	–
B6	–	-0.5	–	–	–	–	–	–	–	0	-0.9
B7	83%	-0.8	–	–	–	–	–	-0.8	–	-0.8	–
B8	67%	-0.6	–	–	–	–	–	–	–	-0.4	-0.8
B9	72%	-0.4	–	–	0.2	–	–	-0.9	–	-0.9	-0.4
